Columns and labels:
[1] = molecular target: T1, purified AFDN FHA domain, C-terminally extended (371-580) (mouse, UniProt Q9QZQ1 371-580); assay: ITC; MicroCal ITC200, 25 °C, 20 mM Tris-HCl pH 7.5, 20 mM NaCl, 1 mM DTT; conditions: both partners purified
T1 construct: 15N-labelled in one NMR experiment; GST probably cut off with thrombin; also called extended FHA domain; source: E. coli BL21, purified (glutathione resin, thrombin cleavage or glutathione elution, SEC)
T1 sequence (looked up): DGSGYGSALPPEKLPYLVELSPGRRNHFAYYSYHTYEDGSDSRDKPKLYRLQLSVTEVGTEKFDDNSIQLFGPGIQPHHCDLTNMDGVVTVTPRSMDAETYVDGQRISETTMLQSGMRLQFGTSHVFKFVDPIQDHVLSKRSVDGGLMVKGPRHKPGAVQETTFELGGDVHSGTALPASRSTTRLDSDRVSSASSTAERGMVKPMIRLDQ

[2] = molecular target: T1, purified AFDN FHA domain, C-terminally …; assay: ITC; MicroCal ITC200, 25 °C, 20 mM Tris-HCl pH 7.5, 150 mM NaCl, 1 mM DTT; conditions: both partners purified

B1: purified SCRIB PDZ1 domain (718-820) (domain or fragment)
chain: not shown
notes: 15N-labelled in one NMR experiment; GST probably cut off with thrombin (it was mixed with GST fusions on glutathione beads); source: E. coli BL21, purified (glutathione resin, thrombin cleavage or glutathione elution, SEC)
B1 was tested. Which Kd [1] did it give?
Its Kd is 5.7 µM.

And the Kd [2]?
The Kd was 14.8 µM.
